The supplement of paper PMC10567573

B1: TFE3 (parent)
chain: FPSDHLGDLGDPFHLGLEDILMEE

Variants of: B1
Test: protein stability index of a GFP-peptide fusion (GPS, HEK-293T) (PSI 1-6); higher = more stable
Settings: c terminus: a fixed tail appended
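Note: lentivirally expressed fusions sorted by FACS into six bins by GFP to DsRed ratio, PSI derived from sequencing read proportions per bin multiplied by bin number.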

Protein stability index: each site, then its substitutions
D19: W 2.16 | F 2.09 | L 2.03 | E 3.2 | N 3.06 | G 3.46 | I 2.92 | R 2.77 | Q 2.83 | V 1.97
G10: V 3.63 | E 3.67 | T 3.46 | F 2.54 | Q 3.05 | I 3.04
E18: H 2.72 | L 1.98 | I 2.01 | W 2.65 | G 2.86 | C 2.18
I20: N 4.29 | L 3.91 | M 3.63 | K 4.05 | Q 4.37 | Y 3.88 | C 3.84 | H 3.92 | T 3.97 | V 3.48
L6: T 3.79 | C 3.42 | S 3.35 | Q 3.6
D11: A 3.23 | W 1.89 | M 3.08 | E 4.24 | T 2.92 | Q 4.41 | Y 2.67
G7: N 3.43 | P 4.3 | S 3.73 | L 3.41 | D 4.3 | T 3.3 | W 2.73
F13: T 4.93 | N 4.97 | K 4.89 | S 4.87 | D 5.22 | I 4.34
G16: V 2.67 | N 3.34 | Y 2.68 | K 3.3 | Q 3.6 | W 1.85 | I 2.31 | C 2.7
P2: H 1.84 | D 3.95 | I 2.12
M22: G 3.64 | A 3.31 | V 3.08 | H 3.7 | F 3.14 | I 3.35 | P 3.71 | K 3.98 | L 3.24 | D 4.26
D4: I 2.76 | Q 3.03 | P 3.11 | C 2.33 | F 2.75
L17: R 3.55 | K 3.53 | Q 3.55 | A 3.92 | W 3.19 | Y 3.46 | D 4.5 | H 4.29
F1: I 4.61 | G 5.12 | C 5.03 | V 4.88 | R 4.64 | K 4.41 | T 4.74
S3: P 3.79 | Y 2.45 | D 4.07 | E 3.97 | K 2.67
E24: N 3.49 | G 2.91 | A 2.64 | Q 2.96 | K 2.59 | F 1.92
P12: I 3.23 | G 4.1 | L 2.81 | S 4.84 | M 3.46
H5: M 3.33 | E 4.15 | T 3.88 | W 1.35 | L 3.3 | C 3.73 | P 3.68 | D 4.42 | S 3.81
D8: G 3.09 | C 2.88 | V 3.1 | P 3.31 | A 2.96 | I 3.03 | R 2.15 | K 2.42
L21: S 3.69 | N 3.85 | C 3.42 | K 4.06 | P 4.18
L9: N 4.32 | H 3.66 | Q 3.64 | G 3.54 | F 3.45 | Y 3.29 | R 3.66 | I 3.54
H14: S 4.25 | Q 4.09 | L 3.38 | A 4 | T 3.64 | C 2.66 | D 4.61
E23: R 2.95 | K 3.34 | A 2.45 | M 2.33 | Y 2.3 | G 2.47 | T 3.24 | D 2.86 | L 2.44 | Q 3.26 | F 2.42
L15: F 3.36 | M 3.35 | Y 3.56 | S 3.67 | Q 3.87 | T 3.85
